Here are results for two molecules from patent US20190276523A1.

The target in assay [1] is F43 scFv-Fc (human) [IgG part: P01857]. Nature of the assay: Octet-Red biolayer interferometry, SA sensor tips, 2:1 model; reference pair HuG6.3 and D80 scFv-Fc. Background: BLI is a label-free optical method that tracks binding on a fibre tip over time.
The target of assay [2] is F70 scFv-Fc-CD28-gp41 expressed on 293T cells (human; HIV-1) [IgG part: P01857]. The assay is described as follows: flow cytometry, 293T-F70 cells stained with APC-conjugated MuG6. (Flow cytometry measures light scatter and fluorescence of single cells or particles in a stream.)
Assay [3] shares this target. Nature of the assay: cell-based or functional assay.
The target of assay [4] is D80 scFv-Fc-CD28-gp41 expressed on 293T cells (human; HIV-1) [IgG part: P01857]. The assay is described as follows: cell-based or functional assay.
For assay [5], the target named is F43 scFv-Fc-CD28-gp41 expressed on 293T cells (human; HIV-1) [IgG part: P01857]. Nature of the assay: cell-based or functional assay.
Assay [6] concerns the target D80 scFv-Fc-CD28-gp41 expressed on 293T cells (human; HIV-1) [IgG part: P01857]. The assay is described as follows: flow cytometry, 293T-D80 cells stained with APC-conjugated MuG6.
In assay [7] the target is 11A scFv-Fc-CD28-gp41 expressed on 293T cells (human; HIV-1) [IgG part: P01857]. Nature of the assay: flow cytometry, 293T-11A cells stained with APC-conjugated MuG6.
Assay [8] concerns the target F43 scFv-Fc-CD28-gp41 expressed on 293T cells (human; HIV-1) [IgG part: P01857]. The assay is described as follows: flow cytometry, 293T-F43 cells stained with APC-conjugated MuG6.

B1: HuG6.3 (format not stated, Octet-Red assay) (antibody, V domains shown)
VH: QVQLVQSGAEVVKPGASVKVSCKASGYTFTSYWMHWVKQAPGQGLEWIGAVSPGNSDTSYNEKFKGKATLTVDKSASTAYMELSSLRSEDTAVYYCTRSRYGNNALDYWGQGTLVTVS
VL: DIQLTQSPSSLSASVGDRVTITCRASQGISSNIVWLQQKPGKAPKGLIYHGTNLESGVPSRFSGSGSGTDYTLTISSLEPEDFATYYCVQYSQFPPTFGQGTKLEIK
In assay [1], B1 displayed a fold increase in binding affinity compared to D80 scFv-Fc of 50 fold, a fold slower Koff compared to D80 scFv-Fc of 600 fold and a fold slower Kon compared to D80 scFv-Fc of 3.5 fold.

B2: MuG6 antibody (format in the CDC and ADCC assays not stated) (antibody, V domains shown)
VH: QVQLQQSGTVLARPGASVKMSCKASGYTFTSYWMHWVKQRPGQGLEWIGAVSPGNSDTSYNQKFKGKATLTAVTSTSTAYMEFSSLTNEDSAVYYCTRSRYGNNALDYWGQGTTVTVSS
VL: DIELTQSPSSMSVSLGDTVNITCRASQGISSNIVWLQQKPGKSFKGLIYHGTNLEDGVPSRFSGSGSGADYSLTISSLESEDFADYYCVQYSQFPPTFGSGTKLELK
modifications: APC-conjugated in the flow cytometry of FIG.11C
With B2, the % of cells in Q2 (ZsGreen+, G6-id+) in assay [2] was found to be 44%; in assay [6] it was 43.3%; in assay [8], 41.3%. Further, the % of cells in Q3 (ZsGreen-, G6-id+) came out at 6.15% in assay [2], 5.28% in assay [6], 0.097% in assay [7] and 9.11% in assay [8]. The CDC, percent of target cells killed (LDH release, rabbit serum) (% of target cells killed) in assay [3], in assay [4] and in assay [5] was 20 each time.
